# Measurements as given in patent publication US12679884 (University of Washington, dated 2026).
# B1: LDB-14-His (VHH, not shown: small tags and cut ends)
# VHH: EVQLQASGGGFVQPGGSLRLSCAASGTTSRWESMGWFRQAPGKEREFVSAISWQNNSVPYYADSVKGRFTISRDNSKNTVYLQMNSLRAEDTATYYCAAQHNFLGHRYWGQGTQVTVSS
# notes: Synthetic nanobody, expressed in E. coli WK6; used in SEC, ITC and photoconversion assays; SEC: mainly monomer
# B2: LDB-3-His (VHH, not shown: small tags and cut ends)
# VHH: EVQLQASGGGFVQPGGSLRLSCAASGFTWDHYIMGWFRQAPGKEREFVSAISENGDAWNYYADSVKGRFTISRDNSKNTVYLQMNSLRAEDTATYYCAIGFDVPSGRSWQGSHFWMYWGQGTQVTVSS
# notes: Synthetic nanobody, expressed in E. coli WK6; used in SEC, ITC and photoconversion assays; SEC: mixture of monomer and dimer
# B3: DrBphP-His, light form (photosensory module of Deinococcus radiodurans bacteriophytochrome, biliverdin-bound, after 654-nm illumination) (other)
# chain: MSRDPLPFFPPLYLGGPEITTENCEREPIHIPGSIQPHGALLTADGHSGEVLQMSLNAATFLGQEPTVLRGQTLAALLPEQWPALQAALPPGCPDALQYRATLDWPAAGHLSLTVHRVGELLILEFEPTEAWDSTGPHALRNAMFALESAPNLRALAEVATQTVRELTGFDRVMLYKFAPDATGEVIAEARREGLHAFLGHRFPASDIPAQARALYTRHLLRLTADTRAAAVPLDPVLNPQTNAPTPLGGAVLRATSPMHMQYLRNMGVGSSLSVSVVVGGQLWGLIACHHQTPYVLPPDLRTTLEYLGRLLSLQVQVKEAADVAAFRQSLREHHARVALAAAHSLSPHDTLSDPALDLLGLMRAGGLILRFEGRWQTLGEVPPAPAVDALLAWLETQPGALVQTDALGQLWPAGADLAPSAAGLLAISVGEGWSECLVWLRPELRLEVAWGGATPDQAKDDLGPRHSFDTYLEEKRGYAEPWHPGEIEEAQDLRDTLTGAL
# modifications: biliverdin chromophore bound
# notes: Same polypeptide as m2; differs only in the photoconverted state (654-nm light); Used in SEC, ITC, BLI and photoconversion assays; also called DrBphP light form
# B4: DrBphP-His, dark form (photosensory module of Deinococcus radiodurans bacteriophytochrome, biliverdin-bound, after 775-nm illumination) (other)
# chain: B3 chain
# modifications: biliverdin chromophore bound
# notes: Same polypeptide as m1; differs only in the photoconverted state (775-nm light); also called DrBphP dark form
# What was measured:
# GAL4-RpBphP1 = assay: cell-based or functional assay
# [1] = target: the molecule itself; assay: analytical SEC of LDB-14 alone at different injected amounts, Superdex 200 Increase 10/300 GL
# [2] = target: the molecule itself; assay: analytical SEC of LDB-3 alone at different injected amounts, Superdex 200 Increase 10/300 GL
# [3] = target: the molecule itself; assay: analytical SEC of DrBphP alone, Superdex 200 Increase 10/300 GL
molecule,measurement,setting,value
NLS-PpsR2-p65,"light-induced luciferase expression over dark expression (mammalian two-hybrid, HEK293T, 775-nm light)",GAL4-RpBphP1,2.95 fold
B1,binding result,[1],binds
B2,binding result,[2],binds
B3,binding result,[3],binds
B4,binding result,[3],binds
